# Source: patent US20250188180A1 (BIOINTRON BIOLOGICAL, published 2025)
# Target: CD40 antigen on cells (cell-based binding assay) (UniProt P25942)
# Test: cell-based binding assay on CD40 cells
# Sequence of CD40 antigen on cells (cell-based binding assay) (UniProt P25942) (P25942 21-277 limits assumed): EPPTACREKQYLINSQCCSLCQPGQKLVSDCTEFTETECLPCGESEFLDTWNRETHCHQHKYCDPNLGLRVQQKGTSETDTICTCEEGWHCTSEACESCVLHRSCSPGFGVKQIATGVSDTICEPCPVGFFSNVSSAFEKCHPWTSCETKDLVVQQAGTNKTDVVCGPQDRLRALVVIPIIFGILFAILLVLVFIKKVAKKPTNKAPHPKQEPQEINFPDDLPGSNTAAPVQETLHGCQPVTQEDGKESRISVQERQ
row,Molecule,X Mean
1,anti-CD40/APX005M (control antibody),10700

# Target: T1, CD40 antigen on cells (cell-based binding assay) (UniProt P25942 21-277, limits assumed)
# T1 construct: whole, on cells; the cells are not described
# Test: cell-based binding assay, 293F culture supernatant
# T1 sequence (P25942 21-277 limits assumed): as above
row,Molecule,X Mean
1,"ANb24-Alpaca1-4M-2SP-149 (Fc fusion, also called ANb24-A1-4M-2SP-149; ANb24-Alpacal-4M-2SP-149; not shown: Fc joined to the VHH by overlap PCR) EVQLVESGGGLVQPGGSLRLSCTASGSTLDIYAIGWFRQAPGKEREGVSCITGSGSSTRYAHSVTGRFTISRDNAKNTVFLQMNSLKPEDTAVYYCAKARLLSRLCVPSPDFESWGQGTQVTVSS",11500
2,"ANb24-Alpaca1-4M-2SP-180 (Fc fusion, also called ANb24-A1-4M-2SP-180; ANb24-Abpacal-4M-2SP-180; not shown: Fc joined to the VHH by overlap PCR) QPQFVESGGGLVQPGGSLRLSCTASGSTLDIYAIGWFRQAPGKEREGVSCITGSGSSTRYADSVTGRFTISRDNAKNTVFLQMNSLKPDDTAVYYCAKARLLSMLCVPSPDFESWGQGTQVTVSS",10800
3,"ANb24-Alpaca1-4M-2SP-273 (Fc fusion, also called ANb24-A1-4M-2SP-273; ANb24-Alpacal-4M-2SP-273; not shown: Fc joined to the VHH by overlap PCR) EVQLVESGGGLVQPGGSLRLSCAASGSTLDYYAIGWFRQAPGKEREGVSCISGSGGSTRYADSVTGRFTISKDSAKNTVYLEMNSLKPEDTAVYYCARARLLSRLCVPSADFDSWGQGTQVTVSS",4420
4,"ANb24-Alpaca1-4M-2SP-335 (Fc fusion, also called ANb24-A1-4M-2SP-335; ANb24-Alpacal-4M-2SP-335; not shown: Fc joined to the VHH by overlap PCR) QPQFVESGGGLVQPGGTLRLSCAASGFTFEYYTIGWFRQTPGKEREGVSCITAAGVPRNADSAKGRFTISRDNAKNMVYLQMNNLKPEDTAVYYCAQARLLSTSCAPMNDYWGQGTQVTVSS",8960
5,"ANb24-Alpaca1-4M-2SP-175 (Fc fusion, also called ANb24-A1-4M-2SP-175; ANb24-Alpacal-4M-2SP-175; not shown: Fc joined to the VHH by overlap PCR) QPHFVESGGGLVQPGGSLRLSCVASGFTFEYVPIGWFRQAPGKEREGVSCITPTGITRNADSVKGRFTISRDNAKNTVYLQLNSLKPEDTAVYYCAKARLLSTSCVQTSDARGQGTQVTVSS",10500
6,"ANb24-Alpaca1-4M-2SP-317 (Fc fusion, also called ANb24-A1-4M-2SP-317; ANb24-Alpacal-4M-2SP-317; not shown: Fc joined to the VHH by overlap PCR) QLQLVESGGDLVQPGGSLRLSCTASGHTLEYYAIGWFRQAPGKEREGVSCIIGSGGSTRYFDSVLGRFTISRDNAKNTVFLQMNSLKPEDTAVYYCAKVRLLSRLCVPSSDFDSWGQGTQVTVSS",8970
7,"ANb24-Alpaca1-4M-2SP-332 (Fc fusion, also called ANb24-A1-4M-2SP-332; ANb24-Alpacal-4M-2SP-332; not shown: Fc joined to the VHH by overlap PCR) QVQLVESGGGLVQPGGSLRLSCAASGSTLASYAIGWFRQAPGKEREGISCISGSGGSTRAADSVQGRFTISRDNAKNTVSLQMNSLKPEDTAIYYCAKVRLLSRGCVPSPDFDSWGQGTQVTVSS",4080
8,"ANb24-Alpaca1-4M-2SP-226 (Fc fusion, also called ANb24-A1-4M-2SP-226; ANb24-Alpacal-4M-2SP-226; not shown: Fc joined to the VHH by overlap PCR) QLQLVESGGGLVQPGGTLRLSCAASGVTLEYYSIGWFRQSPGKEREGVSCISGGGVQRYADSAEGRFAISRDNAKNMVYLQMNNLEPEDTAVYYCARARLLMRGCAPMDNYWGQGTQVTVSS",10700
